Publication doi:10.1101/2023.12.14.571638, “Structural basis of a regulatory switch in mammalian complex I” (bioRxiv, 2023)

B1: NDUFA13 (natural protein, Bos taurus (bovine), UniProt Q95KV7 1-144, looked up)
chain: MAASKVKQDMPPVGGYGPIDYKRNLPRRGLSGYSMFAVGIGALLFGYWSMMKWNRERRRLQIEDFEARIALMPLLQAEKDRRVLQMLRENLEEEATVMKDVPGWKVGESVFHTTRWVTPMMGELYGLRASEEVLSATYGFIWYT
notes: NDUFA13, supernumerary subunit of respiratory complex I, Bos taurus
B2: NDUFA1 (natural protein, Bos taurus (bovine), UniProt Q02377 1-70, looked up)
chain: MWFEVLPGIAVMGVCLFIPGMATARIHRFSNGGKEKRVAHYPYQWYLMERDRRVSGVNRSYVSKGLENID
notes: NDUFA1, supernumerary subunit of respiratory complex I, Bos taurus; endogenous subunit of the purified enzyme
B3: NDUFA8 (natural protein, Bos taurus (bovine), UniProt P42029 1-172, looked up)
chain: MPGIVELPSLEDLKVQEVKVSSSVLKAAAHHYGAQCDKPNKEFMLCRWEEKDPRRCLEEGKLVNQCALEFFRQIKRHCAEPFTEYWTCIDYSGLQLFRRCRKQQAQFDECVLDKLGWVRPDLGDLSKVTKVKTDRPLPENPYHSRARPEPNPEVEGDLKPARHGSRLFFWTM
notes: NDUFA8, supernumerary subunit of respiratory complex I, Bos taurus; endogenous subunit of the purified enzyme
B4: ND6 (natural protein, Bos taurus (bovine), UniProt P03924 1-175, looked up)
chain: MMLYIVFILSVIFVMGFVGFSSKPSPIYGGLGLIVSGGVGCGIVLNFGGSFLGLMVFLIYLGGMMVVFGYTTAMATEQYPEIWLSNKAVLGAFVTGLLMEFFMVYYVLKDKEVEVVFEFNGLGDWVIYDTGDSGFFSEEAMGIAALYSYGTWLVIVTGWSLLIGVVVIMEITRGN
notes: ND6, core membrane subunit of respiratory complex I, Bos taurus; endogenous subunit of the purified enzyme

target: T1, ND1 (Bos taurus (bovine), UniProt P03887 1-318); assay: cryo-EM structure; bovine complex I purified in LMNG, reconstituted into proteoliposomes (DOPC:DOPE:cardiolipin 8:1:1, ubiquinone-10; 10 mM MOPS-KOH pH 7.5, 50 mM KCl), on graphene oxide grids; closed, open1 and open2 states, outward- and inward-facing; best map CI-out-closed 2.5 Å; details: both partners purified
T1 construct: ND1, core membrane subunit of respiratory complex I (NADH:ubiquinone oxidoreductase), Bos taurus; endogenous subunit of the purified enzyme; also called subunit ND1
T1 sequence (P03887 whole entry): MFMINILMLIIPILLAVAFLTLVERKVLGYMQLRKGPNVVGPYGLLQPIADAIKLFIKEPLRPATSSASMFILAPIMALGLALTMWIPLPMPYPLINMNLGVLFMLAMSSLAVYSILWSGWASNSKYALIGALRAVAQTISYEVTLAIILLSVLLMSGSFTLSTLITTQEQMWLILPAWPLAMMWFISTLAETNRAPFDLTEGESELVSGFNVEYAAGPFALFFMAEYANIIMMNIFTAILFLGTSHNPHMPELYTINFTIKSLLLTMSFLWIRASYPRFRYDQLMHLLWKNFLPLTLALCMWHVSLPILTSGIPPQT

| Binder | binding result |
| --- | --- |
| B1 | binds |
| B2 | binds |
| B3 | binds |
| B4 | binds |
